Entries after “also recorded” stand apart in the source; their conditions may differ.
Assays:
[1] = system: human Hsp90β; experiment: Hsp90 ATPase assay, human Hsp90β; assay type: biochemical; conditions: 10 μM Hsp90β, 40 μM RPAP3; % maximum activity of wild type
[2] = target: full-length Hsp90 dimer; experiment: ITC, Spagh/RPAP3 binding to full-length Hsp90 dimer; conditions: 500 μM yeast Hsp90 into 20 μM Spagh/RPAP3^120–395, 10 mM Tris pH 7.5, 5 mM NaCl, ~1:2 molar ratio
Description: Heat of interaction was measured on an ITC200 microcalorimeter (Microcal) under the same buffer conditions (20 mM Tris, pH 7.5, containing 5 mM NaCl). Aliquots of the Tel2 peptides at 350 μM were injected into 30 μM of Pih1 at 30°C. Interactions with Tah1 or Spagh/RPAP3^120–395 were performed in 10 mM Tris pH 7.5 and 5 mM NaCl at 10°C and 30°C. Aliquots of 600 μM Tah1 were injected into 40 μM of yeast Hsp90, 400 μM of SRMEEVD injected into 30 μM Tah1, 301 μM yeast Hsp90 injected into 25 μM yeast Tah1-Pih1 complex, and 400 μM SRMEEVD injected into 30 μM yeast Tah1-Pih1 complex. For Spagh/RPAP3^120–395 experiments, aliquots of 500 μM yeast Hsp90 were injected into 20 μM Spagh/RPAP3^120–395 or 2 mM […] into 80 μM Spagh/RPAP3^120–395 or mutants (N172E, N321E, and N172E-N321E). Heats of dilution were determined by diluting injectant into buffer. Data were fitted using a curve-fitting algorithm (Microcal Origin). ATPase assays were previously described ([Prodromou et al., 1999]).

Kd [2]: 6.8 µM
B1: Spagh/RPAP3: tandem TPR region of human Spagh/RPAP3, residues 120–395 (protein)
chain: ESEEDGIHVDSQKALVLKEKGNKYFKQGKYDEAIDCYTKGMDADPYNPVLPTNRASAYFRLKKFAVAESDCNLAVALNRSYTKAYSRRGAARFALQKLEEAKKDYERVLELEPNNFEATNELRKISQALASKENSYPKEADIVIKSTEGERKQIEAQQNKQQAISEKDRGNGFFKEGKYERAIECYTRGIAADGANALLPANRAMAYLKIQKYEEAEKDCTQAILLDGSYSKAFARRGTARTFLGKLNEAKQDFETVLLLEPGNKQAVTELSKIKK
modifications: left off: GST, end not stated, state not stated
effect on ATPase activity of human Hsp90β (in words) [1]: failed to show any strong regulatory effect; also recorded: no major effect

From article PMC4058522, “Structural Basis for Phosphorylation-Dependent Recruitment of Tel2 to Hsp90 by Pih1” (Structure(London, England:1993), 2014)
